Data reported in FireProtDB (doi:10.1006/jmbi.1999.2852).

Details: Pseudomonas aeruginosa (strain ATCC 15692 / DSM 22644 / CIP 104116 / JCM 14847 / LMG 12228 / 1C / PRS 101 / PAO1), 10 °C, GdnHCl, Fluorescence, reversible: yes (100%), whole UniProt chain shown
[1] = pH 4, phosphate/acetate 25 mM/25 mM/
[2] = pH 4.7, phosphate/acetate 25 mM/25 mM/

B1: Cytochrome c-551 wild type, P00099 (protein)
chain: MKPYALLSLLATGTLLAQGAWAEDPEVLFKNKGCVACHAIDTKMVGPAYKDVAAKFAGQAGAEAELAQRIKNGSQGVWGPIPMPPNAVSDDEAQTLAKWVLSQK
denaturant m value (pH 3, citrate 15 mM): 3.3 kcal/mol/M | denaturant midpoint (higher = more stable) (pH 3, citrate 15 mM): 1 M | unfolding free energy (pH 3, citrate 15 mM): 3.3 kcal/mol | denaturant m value [1]: 2.8 kcal/mol/M | denaturant midpoint (higher = more stable) [1]: 2.1 M | unfolding free energy [1]: 5.9 kcal/mol | denaturant m value [2]: 3.1 kcal/mol/M | denaturant midpoint (higher = more stable) [2]: 2.1 M | unfolding free energy [2]: 6.6 kcal/mol | denaturant m value (pH 7, Sodium phosphate 50 mM): 3.3 kcal/mol/M | denaturant midpoint (higher = more stable) (pH 7, Sodium phosphate 50 mM): 1.8 M | unfolding free energy (pH 7, Sodium phosphate 50 mM): 6 kcal/mol
